# Publication PMC7201719
# How the values were obtained:
# [1] = target: Heat shock cognate 71 kDa protein (chicken (endogenous in DF-1)) (UniProt O73885)
# [2] = target: Heat shock cognate 71 kDa protein (chicken (endogenous in DF-1)) (UniProt O73885); remark: listed apart in the source
# UniProt O73885, sequence (O73885 whole entry): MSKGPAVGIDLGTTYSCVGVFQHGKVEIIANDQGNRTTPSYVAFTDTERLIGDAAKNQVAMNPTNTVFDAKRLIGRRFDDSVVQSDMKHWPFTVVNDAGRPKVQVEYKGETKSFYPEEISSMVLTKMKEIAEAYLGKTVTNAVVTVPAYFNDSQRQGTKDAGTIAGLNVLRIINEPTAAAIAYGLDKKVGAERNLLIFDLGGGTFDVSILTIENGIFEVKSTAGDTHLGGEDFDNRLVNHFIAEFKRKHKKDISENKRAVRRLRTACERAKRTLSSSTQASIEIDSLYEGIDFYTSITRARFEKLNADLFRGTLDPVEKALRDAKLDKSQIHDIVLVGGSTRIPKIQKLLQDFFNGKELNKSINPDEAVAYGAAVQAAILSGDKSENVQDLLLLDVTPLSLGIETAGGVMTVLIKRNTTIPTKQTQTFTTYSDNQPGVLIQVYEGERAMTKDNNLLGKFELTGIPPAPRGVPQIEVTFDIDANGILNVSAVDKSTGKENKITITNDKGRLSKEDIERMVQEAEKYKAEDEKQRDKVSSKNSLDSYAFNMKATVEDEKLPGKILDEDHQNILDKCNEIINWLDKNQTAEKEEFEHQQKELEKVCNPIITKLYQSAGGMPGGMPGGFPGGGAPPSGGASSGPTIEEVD
substance,measurement,setting,value
IBDV VP2 protein (natural protein),"viral titer of IBDV in DF-1 cells pretreated with 5 uM of the HSC70 inhibitor VER155008, 24-72 h after infection (untreated control 3.15-7.23), whole IBDV virus (log10TCID50/mL)",[1],0
same,"VP2/GAPDH by western blot in DF-1 cells pretreated with anti-HSC70 antibody at 25, 12.5 and 6.25 ug/mL and infected with IBDV (normal IgG 3.329, no antibody 3.345)",[2],1.43 VP2/GAPDH
